Measurements published in the DeepSol protein solubility set.

assay: soluble on expression in E. coli; label from the status in PepcDB or PDB records

Sequence	soluble on expression in E. coli
TDAQKRRRAVGHALAYAGYAEIIPSPFMDPEVFDVWGLAADDERRKTVSVLNPLEAERNVLSTSLLPSMLDAVKRNVARGHNDFSLFGLQQVAFEHGSGVSPMPSVASRPEESVVAELVDSLPNQPLHVATVGTGNIEFEGPWGKGRAYTFADAIESARAVARAAGVTLELANADALPWHPGRCAALLIDGTPVGYAGELHPQILEKAGLPARTCAMELDLSALP	not soluble
MSLTNYKVVVLDMDDTLLNSDNVISEETANYLTAIQDEGYYVVLASGRPTEGMIPTARDLKLPEHHSYIISYNGSKTINMTNEEVEVSKSIGKQDFDEIVDYCRDRGFFVLTYHDGQIIYDSEHEYMNIEAELTGLPMKRVDDIKAYIQGDVPKVMGVDYVANITEARIDLNGVFNDNVDATTSKPFFLEFMAKDVSKGNAIKALCHKLGYSVDQVIAFGDSMNDKSMFEVAGLAIAMGNASDELKQYADEVTLDHNENGIPHALKKLLEGHHHHHH	soluble
MPDLFFVTLYDRQDLLKESMTFLNSEWPRSDGSREHSQKKSCRQSPPMSFLLLNKENDEILGHSRITHLPNRDHALWIESVMIKKDQRGLGLGKFLMKSTEKWMTEKGFNEAYLSTDDQCRFYESLGYEKCDPIVHSTTATCIFPAMNHFQNAAASNPSFLSKIAQPSASSTVSASAPPPPPPPPMAPKMVTRSTSPIVDVNTIDHQYMRKWLKPTE	soluble
MGHHHHHHSHVNTLGPEGTSSEYAAKHFISNFTLLQGLNSKLSLHDTFESCIERTLQSPLEYTIVPHAYDGIKHFYMRPDLQLLQIFRCDTPMYGLAVRPDFEFRDDMLDTSVIVSHPSPINLIKYFTRKDVRFKLVNSTSQAARKVKEGLYDIALTNELARQKYGLTFVKTFKSIPMSWSLFGKGDV	soluble
MQLRKMQTVKKEQASLDASSNVDKMMVLNSALTEVSEDSTTGEELLLSEGSVGKNKSSACRRKREFIPDEKKDAMYWEKRRKNNEAAKRSREKRRLNDLVLENKLIALGEENATLKAELLSLKLKFGLISSTAYAQEIQKLSNSTAVYFQDYQTSKSNVSSFVDEHEPSMVSSSCISVIKHSPQSSLSDVSEVSSVEHTQESSVQGSCRSPENKFQIIKQEPMELESYTREPRDDRGSYTASIYQNYMGNSFSGYSHSPPLLQVNRSSSNSPRTSETDDGVVGKSSDGEDEQQVPKGPIHSPVELKHVHATVVKVPEVNSSALPHKLRIKAKAMQIKVEAFDNEFEATQKLSSPIDMTSKRHFELEKHSAPSMVHSSLTPFSVQVTNIQDWSLKSEHWHQKELSGKTQNSFKTGVVEMKDSGYKVSDPENLYLKQGIANLSAEVVSLKRLIATQPISASDSG	soluble
MSLGKTLLVDSKGLILDGKHIIPVMGEIHYSRVPESEWRREIRKMKAGGINIISTYIFWIHHEPEEGKWNWSGNHNLRRFVRICAEENVMLVLRLGPFCHGEVYQGGIPSWVHEKAGQNPKYKIRARTPGFLEDCTELYNTIFAQVNGLLWKDGGPVVGVQIENESRGPWDYLEALKNIAVKAGFDVPFYTRTGWPALRGKEVFGQLLPLYGDYADGFWDRKLEDMPGSYADAFIMRDKRMSSAIATETFSKEELSEDSPSLSSKLSYPYFTCELGGGMMPAYHRRININGKELKPLVICKLGSGSNLPGYYMYHGGTNPYNPLHTMGETQSSPGTNHNDLPHMTYDFQAPLGEVGQVFETPFHEGRFIHQMLTDWGSELLQMNVDSLSRHYARRGAFEFYNDYVRIKNESGTSHVTFKDYRTEGATIDWTTVEPFCKVDGLIYFIEIRGKKPQISVDGKVYTCKLNKEGHHHHHH	not soluble
MGSDKIHHHHHHMTKDMQTFTLVPQGSLEGYIRAANAYPMLTAEEERALAERLHYQGDLEAAKHLILSHLRFVIHVARNYSGYGLPQADLIQEGNIGLMKAVRRFNPEVGVRLVSFAVHWIKAEIHEYVLRNWRIVKVATTKAQRKLFFNLRKAKTRLGWFNQDEVELVARELGVTTKDVREMESRMAAQDMTFDPTPEEDSHDGKAMSPMLYLQDKSSDFADGIEEDNWDTHAADKLTYALEGLDERSQHIIRARWLDDDNKSTLQELADQYGVSAERVRQLEKNAMKKLRAAIEA	not soluble
MAMQIKGVIFDFDGTLLDSVELRITAWKKAFQNFGVNVPEDLIRPMIGYPGIDLAKKFVKNPLDVEMLQEDYFLKNIESAKFFQDVIPTLAELRKRGIKTAVVTSTRRIVMQKFSLQVDHVVTIDDVSKGKPDPEPYLKALKMMGIPAEECIVVGDIENDLIPAKKLRCISVLVKHGRDISSNYADYEIENIADILNVIDHLAEKNNR	not soluble
GSELKDYYAIMGVKPTDDLKTIKTAYRRLARKYHPDVSKEPDAEARFKEVAEAWEVLSDEQRRAEYDQMWQHR	soluble
MPRQRRQGIVYDVREQGTARLIFDENRTKFDGVLETISGETMLVRGRVTSPTDLASTSATTDGSIVMDIDVVDGEEGSAFHVTGVKVLVDEHYAAIDSTAIKFEALDRLIGMKAAVEIQQHISPEIAYDSKEVFIGKMQIHLLTSHRPSPSSRRESVCAENNDIKILEVSDDFLA	not soluble
PQKICLICGDEASGCHYGVLTCGSCKVFFKRAMEGQHNYLCAGRNDCIVDKIRRKNCPACRLRKCCQAGMVLGGRKFK	soluble
SADCILVNSQFTAAVFKETFKSLSHIDPDVLYPSLNVTSFDSVVPEKLDDLVPKGKKFLLLSINRYERKKNLTLALEALVQLRGRLTSQDWERVHLIVAGGYDERVLENVEHYQELKKMVQQSDLGQYVTFLRSFSDKQKISLLHSCTCVLYTPSNEHFGIVPLEAMYMQCPVIAVNSGGPLESIDHSVTGFLCEPDPVHFSEAIEKFIREPSLKATMGLAGRARVKEKFSPEAFTEQLYRYVTKLLV	soluble
MSQVTRVYAGRLAGMIVRGPDTDAIGRVRDVIVNVRPNGQPSRVLGLVVEMMNNRKIFLPMLRVAAIEPQEITLVSGSVSLRAYKPRNGEVAIIADIVGSKVHIDDPELDHLHGRPVEVADIELERTRTRDWAISRVAVIGERPKFGRRPELFTCPWSHVHGISAGGVGITDAAAELIAEFEDMRPADIATVLYELPDAQRANVAKELDDDRLADVLQEMSEDRQAELIETLDIERAADVLEEMDPDDAADLLGELDDDKADVLLELMDPEESAPVRRLMSFSPDTVGALMTPEPLILSPQTTVAEALALARNPDLPTSLASIVFVVRPPTATPTGKYLGCVHLQKLLREPPSELVSGILDPDLPPLWASDSQETAARYFATYNLVCGPVVDNDNHLLGAVAVDDLLDHMLPDDWRDTGIRPDETPKEV	not soluble
MSLTSEDFLIKSKGYLDIQTGEIIKADLLIRNGKIAEIGKINTKDATVISIPDLILIPGLMDSHVHIVGNDSKGEESIADSSHMGTVWGVVNAEKTLMAGFTTVRNVGAANYADVSVRDAIERGVINGPTMLVSGPALGITGGHCDHNLLPPEFNYSSEGVVDSPWEARKMVRKNRKYGADLIKFCATGGVMSRNTDVNAKQFTLEEMKAIVDEAHNHGMKVAAHAHGLIGIKAAIKAGVDSVEHASFIDDETIDMAIKNNTVLSMDIFVSDYILGEGAKAGIREESLNKERLVGKKQRENFMNAHRRGAIITFGTDAGIFDHGDNAKQFAYMVEWGMTPLEAIQASTIKTATLFGIENIGQIKEGFDADIVGVIENPLANIRTLEEVAFVMKEGKVYKREGHHHHHH	soluble
MGSDKIHHHHHHMKQIAVVSGKGGTGKTTFTASLGVLLENSLLADCDVDASNLYILFPGDPVEEHEYYRGKKAVIDQEKCDRCGICERVCRFDAIIPGEKYGVDQYACEGCNACVVSCPRNAITLVQSLAGRYFFAWSGGKPIVYARLSPGEENSGGLVAEVRKLALEKAKELKRDYVIIDGAPGIGCSATSSIVGVNYVVVVTEPTMSGLHDLKRIVETLKCLKREFGIVINKYDINSVVSREIEDYCLSEGLDLLGKIPFDETVVRASVECKPVVTYENSPAAESIKKIVEKIIEKIS	not soluble
MEYSNFFDDLKSNIIGQYEECKAYRILCESQGYNPSEHLRSEKDITNIPFLATTLFKKSANLFLSLLRVEPDKLDKWTLSSSTSGDPSMVGRRNSDLMQIRKFVLMDDKFYDSASEYNCVFYPEPKVMREYKSVRIMDKPTESYIGNLLGIFDFSENTTFLLKSCGEGFSVDMNSFEEFLKFNNERNNHLSLRGSTLLLYNAVLELKKQGKGPYNLGSRAIVHTGGGGWDGKKGNISIGTKIERYQFVEEISEFLGIPQKNFRDTYSFTENTFPMDGHYSEKLRSYLFHVPTWGRVIIRDVKTLEPLNKPGDRGLVQVLNAYGTSSFAGASILVDDIAEIVANDSCPECKHEGMTFKIVGRVKGSEAKGCGATLDVRGKQKLEHHHHHH	soluble
SENLYFQSKVTVGPDPSLVYRPDVDPEVAKDKASFRNYTSGPLLDRVFTTYKLMHTHQTVDFVRSKHAQFGGFSYKKMTVMEAVDLLDGLVDESDPDVDFPNSFHAFQTAEGIRKAHPDKDWFHLVGLLHDLGKVLALFGEPQWAVVGDTFPVGCRPQASVVFCDSTFQDNPDLQDPRYSTELGMYQPHCGLDRVLMSWGHDEYMYQVMKFNKFSLPPEAFYMIRFHSFYPWHTGRDYQQLCSQQDLAMLPWVREFNKFDIYTKCPDLPDVDKLRPYYQGLIDKYCPGILSW	soluble
MGSDKIHHHHHHVSKLSKTRIILACLLNDSVMTTTTAALTPNPIPDLGTDLTTEPCPLTAAQLDVLNRQIKLWGKELGFAHIGVADVDLSQHEAALQDWLDKGYHGEMGYMANHGMMRARPAELHPGAIRVICARMDYLPPDAGFASNLTDPNLGYISRYAGGRDYHKLIRQRLKKLGDKINQYCQQLDFDATDFRPFVDSAPILERPLADKAGLGWTGKHSLILHPDAGSWFFLGELLINLPLPLDIPIEEGCNTCVACIKSCPTDAIVEPYVVDARRCISYLTIELQGAIPEEFRPLIENRIYGCDDCQLVCPVNAKAPLTKETDFHTRTTLIQPDLLTLFAWSETYFLNQTEGSAIRRIGHKRWLRNIAIALGNAPANPAIIEALEQRKHSEEVDDMVLEHIEWALVQQIQKAPQSALSRKTQRVIRSIQKGLPRDA	not soluble
MNKEEIILSAKNWMHSHFENETTGHDWSHIKRVWKLSKEIQSKEGGDLFTIELAALFHDYSDIKLTTDEQEATKTLINWMETKEIPSELIKKIIRIIQSVSFKKGKNTFKALTIEEKIVQDADRLDAIGAIGIARTFTYGGAHNREIANQNNPKNTTLQHFYDKLLLIKDQLNTETAKTIAKEKQKIMQDFIQALEKELKVLEHHHHHH	soluble
GAMGSWNPKYDTRTLWTTPDTSPNCTIAQDKDSKLTLVLTKCGSQILANVSLIVVAGKYHIINNKTNPKIKSFTIKLLFNKNGVLLDNSNLGKAYWNFRSGNSNVSTAYEKAIGFMPNLVAYPKPSNSKKYARDIVYGTIYLGGKPDQPAVIKTTFNQETGCEYSITFNFSWSKTYENVEFETTSFTFSYIAQE	soluble
MIRKCTDHGYFRGGSCQQCKRPGRYVLDDGREEKLGRFVSGTLRHFPASAGVKMDKYGWIDLNAFCEVMKKRYNWMRKEYLYALVESDEKGRYQISGPMIRARYGHSVNVDLDYDESDTPYVYYGASPEEVDVLLENGIFPIKQRYVHLSTTYEKAAEVALIHTESPVILQVDAFRAQEDGISLKLATDYIVLAEKIPPDYLFVLEDLEHHHHHH	soluble
MAHHHHHHMGLYKSIYFVDGGCCAVKFNAITGLKNRTYGEGANFAIPFLETPVVFDIRNKPTEVLTATGSRDLQTVNLAVRVLYQPHVSALPDIYRNVGMEYAETVLPSLVNEIIRAVIAQFNASDLLVKRPEVSNRIGVMLAERAKRFHIDITDVSITQMSFGKEYTSAVEAKQVAQQMAERAKWRVEQAEQEKEGAILLAKGEAEAAKLIGMAVQKNPAFITLRSLEASRTIADLMRQKGSGSFYIDSDTLSLNTQTIGH	not soluble
